± gives the uncertainty stated by the source.
Assay: protein stability index of a GFP-peptide fusion (yeast GPS) (PSI 1-4); higher = more stable; sorted into four equal gates, so the index is relative within each strain
Conditions: doa10∆
Outline: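 Peptides tiling yeast proteins in 17-residue segments were fused downstream of GFP, with Cherry expressed from the same plasmid. As a pooled library in yeast, mid-log cultures grown in leucine-free medium were sorted into four equal gates by GFP/Cherry fluorescence ratio. Gate plasmids were PCR-amplified and Illumina-sequenced, and barcodes linked reads to strains. Each peptide received a protein stability index equal to the sum of each gate's read frequency times its gate number.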

Point of comparison: WRAIIKAIFPNTVDGDL [FAS1], protein stability index 2.58 ± 0.13. Against it:
- VLVYDDKLEKVTHDCYR [RPC34] — within error, 2.57 ± 0.1
- VMESGAKGCEVVVSGKL [RPS3] — higher, 3.04 ± 0.23
- VMNTKLLQEGGSLSGNS [ESC2] — higher, 3.27 ± 0.14
- VNADDDDFMHSETREKE [RPB4] — within error, 2.7 ± 0.089
- VNADTVGKTVKQLIMES [NSL1] — higher, 3.22 ± 0.077
- VNDRSDISDSEGGLFEC [PCI8] — higher, 3.38 ± 0.2
- VNDTVKIDLASGKITDF [RPS4A] — higher, 3.07 ± 0.12
- VNGFLNLGYCNDKLIVD [RPN1] — higher, 3.32 ± 0.098
- VNITKFSKFERSKSSHK [SKI6] — within error, 2.73 ± 0.095
- VNTTRRFQYSDDEPAEK [YMR129W/POM152] — within error, 2.87 ± 0.22
- VNVLLQSYFSQLKFEGF [BRR2] — lower, 1.22 ± 0.048
- VPAVVDDPLENMFGDYS [SNF6] — higher, 3.09 ± 0.14
- VPQGKIVALTNAKDKER [SMC3] — within error, 2.77 ± 0.1
- VPQSEETRAELSQLCAV [RPO21] — lower, 2.37 ± 0.067
- VQLLSKSHNAHVRCGTA [RPN2] — lower, 1.44 ± 0.071
- VQQFAQLPVGFKNMGNT [UBP6] — lower, 2.03 ± 0.1
- VQVGPMKVFVTKHLMPQ [RPB7] — within error, 2.54 ± 0.047
- VQYKLLSISVPSDVNID [SNU114] — lower, 1.98 ± 0.076
- VREFQRRLAFLGIKVAE [BRR2] — lower, 2.06 ± 0.12
- VRMLASPMLYKVPDISS [BRR2] — lower, 2.28 ± 0.073
- VRNLQGIQEVVHNTNSF [NUT1] — higher, 2.98 ± 0.079
- VRNTAPNIRELGVKNLG [YCG1] — within error, 2.88 ± 0.2
- VRNYKPLINRLKHYNGY [SWI1] — lower, 1.79 ± 0.048
- VRRLEAQRNALNDKVRF [RPT6] — within error, 2.63 ± 0.1
- VRSAEYYAKKRAFTKKV [RPL16B] — within error, 2.66 ± 0.1
- VRSLPKEEQPKQIIVTR [PRP8] — within error, 2.38 ± 0.1
- VRSREDRKNRAPPQRPR [RPS26A] — higher, 3.27 ± 0.26
- VRWIETQDVFLKDFNTE [FAS2] — higher, 3.227 ± 0.03
- VSEDLLDERGHEKIEDE [RPN4] — higher, 3.36 ± 0.1
- VSFNGFKLPKKFPPPTP [BRR2] — within error, 2.57 ± 0.07
- VSGNNASDEPSRKKNRR [SSN3] — within error, 2.67 ± 0.1
- VSKKWAAAGVCEKWAAS [RPL14B] — within error, 2.64 ± 0.077
- VSMKANKYQIKKAVKEL [RPL25] — lower, 1.18 ± 0.065
- VSNIEGILDEIMFNHAR [RGR1] — higher, 2.77 ± 0.054
- VSNNVLRRLEILVPDLY [ECM29] — lower, 2.31 ± 0.1
- VSSLPGSTDKSLDFLNQ [COR1] — higher, 3.45 ± 0.18
- VTFSPTGRLFQVEYALE [PRE5] — higher, 3.28 ± 0.099
- VTKETVHPRKSYKMNSS [PRP8] — higher, 3.03 ± 0.11
- VTLFQMAILLLYNDADV [CDC53] — lower, 2.03 ± 0.057
- VTNDLDTSAEKDQIQAG [SIR4] — higher, 3.32 ± 0.12
- VTRTQQWSMVAQRLQIS [SWI1] — lower, 2.05 ± 0.051
- VTSEKYPFDKLESWWLV [BRR2] — within error, 2.42 ± 0.29
- VTSMEAAREKKIRELEA [YIL149C/MLP2] — higher, 2.97 ± 0.072
- VTYTEHAKRKTVTSLDV [HHF1] — higher, 3.25 ± 0.23
- VVDANGCVNSLISGPRN [YMR129W/POM152] — within error, 2.86 ± 0.15
- VVDQLWSEISNELPDIE [RPN2] — within error, 2.38 ± 0.12
- VVEGVTFVVEQLIKQSI [SNU114] — within error, 2.52 ± 0.076
- VVEISNGNTSSKTVVTL [FAS1] — higher, 3.11 ± 0.06
- VVESVGAEVDEARINEL [RPP2B] — higher, 3.23 ± 0.11
- VVGTETRVNAQLESYEY [RRI1] — within error, 2.72 ± 0.18
- VVLFNRQPSLHRLSILS [RPO31] — lower, 1.65 ± 0.054
- VVLRLYLKDNITLLTRQ [GRR1] — lower, 1.88 ± 0.057
- VVLSFSGLNADSRILIE [PRE6] — higher, 2.87 ± 0.15
- VVNITHHELVPKHIRLS [RPB5] — within error, 2.52 ± 0.065
- VVRIKGINKIPPKPRKV [RPL7A] — lower, 1.94 ± 0.043
- VVSILEAGDSDILTTLA [RPL30] — higher, 3.12 ± 0.059
- VVVIDGKGHLVGRLASV [RPL16A] — lower, 1.66 ± 0.065
- VVVVLEEPSASIMVELK [SIR3] — higher, 2.95 ± 0.083
- VWFSHPRRYGKGSRQCR [RPS29A] — higher, 3.14 ± 0.16
- WASKYGQEYPRIIGLSA [BRR2] — lower, 1.47 ± 0.073
- WESLAKKQNLSSHQRVF [SWP82] — within error, 2.77 ± 0.063
- WIKNEQERQRQIQKNGP [PRP8] — within error, 2.75 ± 0.092
- WIRLRTNNTIRYNAKRR [RPL39] — higher, 2.88 ± 0.12
- WKEVMFDPSKDVLINEL [CDC53] — within error, 2.41 ± 0.074
- WMLSICVEWRLPEIAKE [YJR042W/NUP85] — lower, 1.2 ± 0.08
- WNRADNHFKDTYGFSIL [FAS1] — higher, 3.07 ± 0.12
- WQIEEAGNSQITSGGFL [SRB5] — higher, 2.98 ± 0.2
- WQYYYYTLTEEGVEYLR [RPS10A] — the same, 2.58 ± 0.084
- WRILKEDYAIVTKGGTV [PRP28] — higher, 3.47 ± 0.27
- WSKESNYDCKVISIVGG [PRP28] — higher, 3.06 ± 0.11
- WSKTIKARTNLHQHVVL [RPC34] — lower, 2.11 ± 0.1
- WSTTGDNGELDLSGFNI [MED2] — higher, 3.18 ± 0.09
- WTEKKGKNVINRERFIS [SMD2] — within error, 2.54 ± 0.16
- WTMRIEGRLLDNVQAND [SNF12] — within error, 2.48 ± 0.09
- WYEASTWIQQFKSTMLQ [ARP7] — within error, 2.54 ± 0.078
- YARFKNDFFPGEVVYLR [ITC1] — higher, 3.29 ± 0.083
- YASFNDTFVHVTDLSGK [RPS14B] — lower, 2.31 ± 0.098
- YATKDGVAHLLNRFNFQ [QCR2] — within error, 2.45 ± 0.088
- YAVKAVENGTTSIGIKC [PRE10] — lower, 2.04 ± 0.11
- YDNEKTAELIKELKEKE [PUP2] — higher, 3.27 ± 0.066
- YDPIKRIDAFNALEHKY [SSN3] — higher, 2.83 ± 0.058
- YDPSIGIFGMDFYVVMN [RPL11A] — lower, 2.26 ± 0.05
- YDSRSGTHNMYKEIRDV [RPL20A] — higher, 3.11 ± 0.069
- YEKELMGDELTRSHFNA [RPN6] — higher, 2.96 ± 0.13
- YENSISKDLRSVWKPIA [IRR1] — the same, 2.58 ± 0.092
- YEYGAVSVLLISKDCSA [BRR2] — lower, 2.12 ± 0.047
- YFFQLQIRSADEPMTTF [RPC11] — within error, 2.77 ± 0.063
- YGDGNGKGDNDNGLGPL [SWI3] — higher, 3.46 ± 0.15
- YGLGLIYAGFGRDTTDY [RPN2] — higher, 3.37 ± 0.12
- YGMSITETFEKPQRTNT [RPB2] — higher, 3.03 ± 0.14
- YGRKSFRNNKNDNYSSD [REC8] — higher, 3.28 ± 0.096
- YGTATADDADIEMKDVS [MED1] — higher, 3 ± 0.13
- YIEDFLLVIGGNQRKIL [YJR042W/NUP85] — lower, 1.59 ± 0.051
- YIEEKHPTIYESLPQYV [POP4] — lower, 2.33 ± 0.044
- YILEAEAAAKEKDELDN [QCR7] — higher, 3.1 ± 0.24
- YIQRRLVKALEDIMVHY [RPO21] — lower, 1.77 ± 0.049
- YIRKLISSGLLYLQDSN [SRB8] — lower, 1.63 ± 0.068
- YITAKNNVVINFKDMSH [PRP8] — lower, 2.26 ± 0.052
- YKAKIKELENNLERLRS [YIL149C/MLP2] — higher, 3.22 ± 0.095

Same assay, conditions: pdr5∆

For VLVYDDKLEKVTHDCYR [RPC34], the protein stability index was 3.18 ± 0.053.

From the supplement of paper PMC9732359
